Numbering of substitutions follows the chain as printed.
B1: PA430 human IgG (antibody, V domains shown)
VH: QMQLVESGGGVVQPGKSLRLSCAASGFTFSYHAMHWVRQAPGKGLEWLAAMSHDGTETSYADSVKGRITISRDNSKSALYLQMNSLRAEDTAVYYCTAEGLRSNGGAFETWGRGTMITVSS
VL: SYELTQPPSVSVAPGQTARITCSGDVLPKHYAYWYQQKPGQAPVLVIYKDSERPSGIPERFTGSSSGTKVTLTISGVRAEDEADYYCQSVDSSDTSVVFGGGTKLTVLG
notes: Converted from the phage antibody to whole human IgG with vectors pIgGHD-6A6Hvy and pIgGLD-6A6Lgt and expressed in HEK293T
B2: PD52 human IgG (antibody, V domains shown)
VH: QMQLVQSGGGVVQPGGSLRLSCVGSGFSFDDYAMHWVRQAPGKGLEWVSGISWNSGAIGYADSVKGRFTVSRDNSKNSLYLQMNSLRAEDTAVYYCATASRGLGDAFDIWGQGTMVTVSS
VL: B1 VL with A13S, S51T, T62S, K69T, R78Q, S92N
notes: Whole human IgG
B3: PD10 human IgG (antibody, V domains shown)
VH: QVQLVESGGGLVQPGGSLRLSCAASGFTFDEHAMHWVRQAPGKGLQWVSGINWNSGKTGYADSVKGRFTISRDNSKNSLYLQMNSLRAEDTAVYYCTRPGEDTGGGFDIWGQGTMITVSS
VL: NFMLTQPASVSGSPGQSITISCTGSSSDVGGYNYVSWYQQHPGKAPQLIIYDVTKRPSGVSNRFSGSKSGNSASLTISGLQAEDEADYYCSSYSSSTFYVFGTGTKVTVLG
notes: Whole human IgG
B4: PD27 human IgG (antibody, V domains shown)
VH: B3 VH
VL: B1 VL with P8L, A13S, P28A, K29D, A32S, I47M, T62S, K69T, R78Q
notes: Whole human IgG

Molecular target: BSA (UniProt P02769 25-607)
Sequence (P02769 25-607 limits assumed): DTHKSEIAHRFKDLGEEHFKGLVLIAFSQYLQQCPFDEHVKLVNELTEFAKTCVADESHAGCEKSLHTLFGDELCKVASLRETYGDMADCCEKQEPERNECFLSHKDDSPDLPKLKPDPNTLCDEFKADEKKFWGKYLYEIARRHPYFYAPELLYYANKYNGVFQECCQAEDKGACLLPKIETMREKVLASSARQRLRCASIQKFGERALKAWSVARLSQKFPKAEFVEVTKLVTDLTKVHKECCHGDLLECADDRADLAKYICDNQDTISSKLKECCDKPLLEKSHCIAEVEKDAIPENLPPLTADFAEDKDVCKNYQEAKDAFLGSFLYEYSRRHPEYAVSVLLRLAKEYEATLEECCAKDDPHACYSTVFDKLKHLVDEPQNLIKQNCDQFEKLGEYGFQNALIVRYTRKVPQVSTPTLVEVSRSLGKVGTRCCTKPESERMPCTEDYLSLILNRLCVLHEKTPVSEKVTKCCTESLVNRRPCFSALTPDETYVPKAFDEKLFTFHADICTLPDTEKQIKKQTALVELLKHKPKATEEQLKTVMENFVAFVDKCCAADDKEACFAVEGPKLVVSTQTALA
Assay: ELISA, coated BSA, anti-human IgG HRP
Description: ELISAs were performed to identify antigen-specific binding capacity of clones converted to IgG EGFRvIII peptide, […] peptide and BSA were coated on […] 96 well plates at 37° C. for 2 hours. Thereafter, after blocking the uncoated portion with 3% skim milk/0.05% PBST, 1 μg/ml IgG was added to the plate and reacted at 37° C. for 1 hour. Anti-human IgG HRP (pierce, USA) was diluted in 1:3000 and reacted for 1 hour. Next, the TMB substrate (BD, USA) was treated for 10 minutes for color development, and the reaction was stopped by treating with 2N H2SO4. As to the color developed ELISA, the absorbance was measured at 450 nm-650 nm using a Sunrise ELISA reader (TECAN, Switzerland).

Q: Does B1 bind?
A: no binding (tested: 1 µg/ml IgG)

Q: Does B2 bind?
A: no binding (tested: 1 µg/ml IgG)

Q: Does B3 bind?
A: no binding (tested: 1 µg/ml IgG)

Q: Does B4 bind?
A: no binding (tested: 1 µg/ml IgG)

Source: patent US20170327585A1 (PHARMABCINE, published 2017)
